Laboratory results: paper PMC6820745, “Structural and thermodynamic basis for the recognition of the substrate-binding cleft on hen egg lysozyme by a single-domain antibody” (Scientific Reports, 2019)

Legend:
Conditions in all cases: both partners purified
[1] = target: T1, hen egg lysozyme (Gallus gallus (hen), UniProt P00698); test: SPR; as a1, but KD from the responses in equilibrium (Scatchard plot, 1:1 model); HEL immobilised; 25 °C; PBS with 0.005% Tween 20
T1 construct: hen egg lysozyme (lysozyme C), bought from Wako Pure Chemical; also called HEL; source: bought: Wako Pure Chemical (Cat. No. 126-02671), used without further purification
T1 sequence (P00698 19-147): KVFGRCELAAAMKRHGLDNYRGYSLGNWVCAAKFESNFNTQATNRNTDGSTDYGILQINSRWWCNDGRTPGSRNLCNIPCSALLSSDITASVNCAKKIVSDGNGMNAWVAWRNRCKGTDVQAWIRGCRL

[2] = target: T1, hen egg lysozyme; test: SPR; HEL immobilised; measured at several temperatures; van't Hoff analysis (non-linear regression); PBS with 0.005% Tween 20; KD given for 25 °C from the van't Hoff free energy
[3] = target: T1, hen egg lysozyme; test: as above; remark: listed apart in the source
[4] = target: T1, hen egg lysozyme; test: ITC; iTC200; 25 °C; PBS; VHH (10 uM) in the cell titrated with HEL (100 uM); 1:1 binding model
[5] = target: T1, hen egg lysozyme; test: SPR; Biacore T200; HEL immobilised on CM5 chip (200 RU); VHH flowed over; 25 °C; PBS with 0.005% Tween 20; global fit to a 1:1 binding model
Outline: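 Binding of the His6-tagged single-domain antibody, expressed in E. coli BL21(DE3) and purified by Ni-NTA and size-exclusion chromatography, was measured by surface plasmon resonance on a Biacore T200 against hen egg lysozyme immobilised on a CM5 chip (200 RU). Runs were at 25 °C in PBS with 0.005% Tween 20, with 300 s contact, 600 s dissociation and regeneration in 1.0 M Arg-HCl pH 4.4. Antibody concentrations were adjusted per mutant. Kd, kon and koff came from global fitting to a 1:1 binding model in BiaEvaluation.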

Kd [1]: 0.144 ± 0.022 µM
dH (van't Hoff) [2]: -46 kJ/mol
Kd [3]: 0.046 ± 0.019 µM
ddH against WT antibody (ITC) [4]: 38.1 ± 5.86 kJ/mol
Kd [5]: 0.0461 µM
koff [5]: 0.128 s⁻¹
kon [5]: 2.77e+06 M⁻¹ s⁻¹
B1: D3-L11 Y52A (VHH)
VHH: DVQLVESGGGSVQAGGSLRLSCAASGSTDSIEYMTWFRQAPGKAREGVAALATHTGNTYYTDSVKGRFTISQDKAKNMAYLRMDSVKSEDTAIYTCGATRKYVPVRFALDQSSYDYWGQGTQVTVSS
notes: as the VHH chain of m2 with the stated change; source: E. coli BL21(DE3), purified (Ni-NTA, SEC)
